Results from US5814466, “Method for assaying for a substance that affects an SH2-phosphoraylated ligand regulatory system” (Mount Sinai Hospital Corporation, dated 1998).

Experiments:
[1] = target: T1, PDGF receptor from BB-PDGF-stimulated Rat-2 cells (activated PDGF-R) (rat (endogenous protein of Rat-2 cells), UniProt Q05030, phosphotyrosine (after stimulation with 75 nM BB-PDGF; sites not stated)); experiment: pull-down of immobilised TrpE fusion from lysate of PDGF-stimulated Rat-2 cells, immunoblot
Experimental: The following procedure was used to investigate binding of TryE fusion proteins that contain GAP, Src, or Crk SH2 domains to PDGF-R in lysates of stimulated Rat-2 cells. Serum-starved Rat-2 cells were stimulated for 5 min at 37° C. with 75 nM BB-PDGF, lysed, and mixed with the indicated immobilized TrpE bacterial fusion proteins. Complexes were washed, resolved on 7.5% SDS-polyacrylamide gels and analyzed by immunoblotting with anti-P.Tyr (8 hour exposure) or with anti-PDGF-R (18 hour exposure).
Because GAP also associates with the PDGF-R, experiments were carried out using bacterial GAP SH2 sequences (see FIG. 7). The GAP SH2[N] domain bound the PDGF-R in a lysate of PDGF-stimulated cells (FIG. 9), but not in unstimulated cells.

[2] = target: T1, PDGF receptor from BB-PDGF-stimulated …; experiment: pull-down from lysate of PDGF-stimulated Rat-2 PLCγ1 cells; competitor: overexpressed cellular PLCγ1
Source text: Only a minor fraction of activated PDGF-R complexes with PLCγ1 in vivo. A Rat-2 cell line was genetically modified to overexpress PLCγ1 by tenfold as compared with the endogenous enzyme (Rat-2 PLCγ1). There is a proportionate increase in the amount of PDGF-R precipitated with antibodies to PLCγ1 (anti-PLCγ1) after PDGF stimulation of Rat-2 PLCγ1 cells, in comparison with parental Rat-2 cells. If bacterial PLCγ1 SH2 domains bound to the same site(s) on the PDGF-R as did cellular PLCγ1, then overexpression of PLCγ1 should block binding of bacterial PLCγ1 SH2 domains to activated PDGF-R in vitro. To investigate this Rat-2 cells (FIG. 10, lanes 1, 2, 5 and 6) or a Rat-2 cell line that overexpressed PLCγ1 by tenfold (R2-PLCγ; lanes 3, 4, 7, 8) were stimulated with PDGF (lanes 1, 3, and 5–8) or maintained without PDGF (lanes 2 and 4). Cell lysates were mixed with immobilized TrpE-PLC-SH2[N] (lanes 1 to 4), TrpE-PLC-SH2[N+C] (lanes 5 and 7), or TrpE-GAP-SH2 [N+3+C] ([…]). Samples were washed, separated by gel electrophoresis, and immunoblotted with anti-P.Tyr. Similar results were obtained by blotting with anti-PDGF-R.

B1: TrpE-GAP-SH2[N+3+C] (other)
chain: MQTQKPTLELLTCEGAYRDNPTALFHQLCGDRPATLLLESADIDSKDDLKSLLLVDSALRITALGDTVTIQALSGNGEALLALLDNALPAGVESEQSPNCRVLRFPPVSPLLDEDARLCSLSVFDAFRLLQNLLNVPKEEREAMFFGGLFSYDLVAGFEDLPQLSAENNCPDFCFYLAETLMVIDHQKKSTRIQASLFAPNEEEKQRLTARLNELRQQLTEAAPPLPVVSVPHMRCECNQSDEEFGGVVRLLQKAIRAGEIFQVVPSRRFSLPCPSPLAAYYVLKKSNPSPYMFFMQDNDFTLFGASPESSLKYDATSRQIEITNQWYHGKLDRTIAEERLRQAGKSGSYLIRESDRRPGSFVLSFLSQMNVVNHFRIIAMCGDYYIGGRRFSSLSDLIGYYSHVSCLLKGEKLLYPVAPPEPVEDRRRVRAILPYTKVPDTDEISFLKGDMFIVHNELEDGWMWVTNLRTDEQGLIVEDLVEEVGREEDPHEGKIWFHGKISKQEAYNLLMTVGQVCSFLVRPSDNTPGDYSLYFRTNENIQRFKICPTPNNQFMMGGRYYNSIGDIIDHYRKEQIVEGYYLKEPVPMQD
[1]
  fold more efficient binding than expected from the individual SH2 domains: 3 fold

B2: TrpE-PLC-SH2[N] (other)
chain: MQTQKPTLELLTCEGAYRDNPTALFHQLCGDRPATLLLESADIDSKDDLKSLLLVDSALRITALGDTVTIQALSGNGEALLALLDNALPAGVESEQSPNCRVLRFPPVSPLLDEDARLCSLSVFDAFRLLQNLLNVPKEEREAMFFGGLFSYDLVAGFEDLPQLSAENNCPDFCFYLAETLMVIDHQKKSTRIQASLFAPNEEEKQRLTARLNELRQQLTEAAPPLPVVSVPHMRCECNQSDEEFGGVVRLLQKAIRAGEIFQVVPSRRFSLPCPSPLAAYYVLKKSNPSPYMFFMQDNDFTLFGASPESSLKYDATSRQIEIWFHGKLGAGRDGRHIAERLLTEYCIETGAPDGSFLVRESETFVGDYTLSFWRNGKVQHCRIHSRQDAGTPKFFLTDNLVFDSLYDLITHYQQVPLRCNEFEMRLSEPV
[2]
  PDGF-R associated, relative to parental PDGF-stimulated Rat-2 cells: 0.33 fraction of the amount from parental Rat-2 cells

B3: TrpE-PLC-SH2[N+C] (other)
chain: MQTQKPTLELLTCEGAYRDNPTALFHQLCGDRPATLLLESADIDSKDDLKSLLLVDSALRITALGDTVTIQALSGNGEALLALLDNALPAGVESEQSPNCRVLRFPPVSPLLDEDARLCSLSVFDAFRLLQNLLNVPKEEREAMFFGGLFSYDLVAGFEDLPQLSAENNCPDFCFYLAETLMVIDHQKKSTRIQASLFAPNEEEKQRLTARLNELRQQLTEAAPPLPVVSVPHMRCECNQSDEEFGGVVRLLQKAIRAGEIFQVVPSRRFSLPCPSPLAAYYVLKKSNPSPYMFFMQDNDFTLFGASPESSLKYDATSRQIEIWFHGKLGAGRDGRHIAERLLTEYCIETGAPDGSFLVRESETFVGDYTLSFWRNGKVQHCRIHSRQDAGTPKFFLTDNLVFDSLYDLITHYQQVPLRCNEFEMRLSEPVPQTNAHESKEWYHASLTRAQAEHMLMRVPRDGAFLVRKRNEPNSYAISFRAEGKIKHCRVQQEGQTVMLGNSEFDSLVDLISYYEKHPLYRKMKLRYPI
[2]
  PDGF-R associated, relative to parental PDGF-stimulated Rat-2 cells: 0.33 fraction of the amount from parental Rat-2 cells
